Data taken from paper PMC13262181 (Structure (London, England : 1993), 2025).
Ends that are not written are not given here. Ahx = NCCCCCC(=O)O

Assays:
[1] = Solubility of synthesized peptides; assay type: physicochemical; conditions: when synthesized and experimentally tested
[2] = biological target: LVEAVY tracer (synthetic construct); conditions: cited from earlier work
Cdc37 = biological target: T1, Cdc37 (Homo sapiens, UniProt Q16543); assay: 19F T2 filter NMR binding to Cdc37; conditions: 19F-peptides 20 μM, increasing Cdc37 (0.5, 1, 2, 4 μM)
T1 sequence (Q16543 1-378): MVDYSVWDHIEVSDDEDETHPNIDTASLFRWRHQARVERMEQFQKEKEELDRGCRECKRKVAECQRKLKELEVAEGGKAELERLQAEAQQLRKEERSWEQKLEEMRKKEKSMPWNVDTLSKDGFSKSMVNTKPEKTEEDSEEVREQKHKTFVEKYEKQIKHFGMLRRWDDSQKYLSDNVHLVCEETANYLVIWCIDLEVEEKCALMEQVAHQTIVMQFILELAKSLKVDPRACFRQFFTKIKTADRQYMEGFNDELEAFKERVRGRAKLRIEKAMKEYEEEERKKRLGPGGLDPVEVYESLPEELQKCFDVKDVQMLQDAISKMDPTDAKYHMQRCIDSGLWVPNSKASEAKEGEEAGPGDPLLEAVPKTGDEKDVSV

[3] = biological target: T2, Hsc70 SBD construct (residues 395-509) (human, UniProt P11142 395-509); assay: fluorescence polarisation
T2 sequence (P11142 395-509): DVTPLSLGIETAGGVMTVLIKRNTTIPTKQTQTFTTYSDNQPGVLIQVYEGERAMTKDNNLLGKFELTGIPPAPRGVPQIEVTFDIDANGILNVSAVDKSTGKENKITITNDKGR

[4] = biological target: T2, Hsc70 SBD construct (residues 395-509); assay: fluorescence polarisation; remark: listed apart in the source
[5] = biological target: T2, Hsc70 SBD construct (residues 395-509); assay: fluorescence polarisation; remark: listed apart in the source

For F-GVAEIGVGAYG [Cdk4-3], the solubility [1] was “limited solubility”.

In the case of FATSRTDREGPN [Cdk4-1], the solubility [1] is reported as “limited solubility”.

In the case of Hsc70 SBD (from UniProt P11142), the Kd [2] is given as 100 nM.

For PGQLMAISVGPTTLFV [Cdk4-2-scr], the “binding to Cdc37, 19F NMR titration” value (Cdc37) was “no interaction was observed”.

B1: FAM-Ahx-LPISTGGFQMALTPVV-OH (peptide)
peptide: {FAM-Ahx}-LPISTGGFQMALTPVV-OH
With B1 the Kd [3] was 29 nM.

B2: unlabeled Cdk4-4 (peptide)
peptide: Ac-GGFQMALTPVV-OH
With B2 the Ki [4] was greater than 100000 nM.

B3: Ac-… with the Leu residue mutated to alanine (peptide)
peptide: Ac-TGGFQMAAT
B3: binds [5].

B4: Ac-… with the Met residue mutated to alanine (peptide)
peptide: Ac-TGGFQAALT
B4: binds [5].
